Measured values taken from patent publication US12570975B2, “Composition for diagnosis or treatment of a condition associated with increased activity of EIF4E comprising an EIF4E inhibitor” (SoVarGen Co., Ltd., priority 2019, dated 2026).

B1: sheIF4E: shRNA against eIF4E, sense SEQ ID NO: 203 and antisense SEQ ID NO: 204, expressed from mU6 promoter in pCIG-mTOR mutant vector (nucleic acid)
sense: TCGATTGATCTCTAAGTTTGATTTCAAGAGAATCAAACTTAGAGATCAATCGTTTTTTCTCGA
antisense: TCGAGAAAAAACGATTGATCTCTAAGTTTGATTCTCTTGAAATCAAACTTAGAGATCAATCGA

Tests used:
FMCD animal models = test: Metformin treatment of FMCD animal models, video-EEG seizure analysis; format: in vivo, mouse
Source text: In this experiment, metformin was intraperitoneally injected at a dose of […] into the FMCD animal models of Example 1 from P14 to P56 for early treatment and from P84 to P114 for late treatment.

eIF4E [1] = test: Immunostaining for eIF4E in sheIF4E FMCD mice; format: in vivo, mouse; conditions: brain tissue at postnatal day 21
Source text: For the animal model, prepared in Example 2-1, in which eIF4E was knock-downed using sheIF4E, after embryos that had been electroporated with a plasmid carrying an mTOR mutant gene at embryonic day 14 (E14), in the same manner as in U.S. Pat. No. 9,629,346, were born, the mice expressing fluorescence were screened by flashlight (Electron Microscopy Science, USA).

[2] = test system: FMCD epilepsy animal models; test: Cortical dysplasia, neuron size and synaptic spine density in sheIF4E FMCD mice; format: in vivo, mouse
Protocol: Then, mice born following the electroporation of Example 1-6 were analyzed for neuronal cell size and synaptic spine density. Neuronal cell size was measured in ImageJ software (http://rsbweb.nih.gov/ij/). Synaptic spines were counted using a 63× objective lens. Ten basal dendrites were acquired per subject, and measured in electroporated cells expressing a GFP reporter, using manual counting. For neuronal cell size (FIG. 12), mouse brain tissues at postnatal day 21 were acquired and the size of GFP (green)-positive mutant cells (shScramble or sheIF4E expressed) was measured. For synaptic spine density (FIG. 13), mouse brain tissues at postnatal day 21 were acquired and synaptic spines of basal dendrites were counted in GFP (green)-positive mutant cells (shScramble or sheIF4E expressed).
In addition, for cortical dysplasia (FIG. 11), mouse brain tissues at postnatal day 7 of Example 2-1 were acquired and distributions of GFP (green)-positive mutant cells (shScramble or sheIF4E expressed) in the cortex were detected (n=5 in each case. Scale bar=100 μm. Mean±SEM).

ADK, IRSp53, and CREB1 = test: Immunostaining for ADK, IRSp53 and CREB1 in sheIF4E FMCD mice; format: in vivo, mouse; conditions: mTOR p.Cys1483Tyr and p.Leu2427Pro mice, compared to shScramble mice
Source text: Therefore, the present inventors performed additional immunostaining in order to investigate in vivo knockdown effect on the expression of ADK, IRSp53, and CREB1 in the FMCD mice, and confirmed significant reduced expression of the genes (FIG. 9e). In the brain tissues at postnatal day 21 from the animal models established using pCIG-MTOR mutant-IRES-GFP; mU6-sheIF4E vector in the same manner as in Examples 1-3 and 3-1, the expression of ADK, IRSp53, and CREB1 was decreased with decreasing of eIF4E expression.
In order to examine whether sheIF4E-mediated in-vivo knockdown of eIF4E led to the expression downregulation of eIF4E-sensitive genes, expression of eIF4E-sensitive genes was analyzed by immunofluorescence. The immunofluorescence results are depicted in FIG. 9e. The animal models with the sheIF4E-mediated eIF4E knockdown characteristic and the shScramble mice were substantially the same as in Example 2-1.

[3] = test system: FMCD and epilepsy animal models (mTOR-p.C1483Y, mTOR-p.L2427P); format: in vivo, mouse
Protocol: (§1) Behaviors were recorded and analyzed using EthoVision XT (Noldus).
(§2) Experiments were performed on the FMCD and epilepsy animal models (mTOR-p.C1483Y, mTOR-p.L2427P) of Example 7-1 and the control normal animal models (mTOR-WT). The same sheIF4E as that described in Example 2 was used. Week 2 after sheIF4E injection, the handling was performed in the animals. Week 3 after sheIF4E injection, the animals were subjected to the behavioral tests.
(§3) The epilepsy animal models were subjected to the substantially same behavioral abnormality assay as in Example 6. The results are depicted in FIGS. 28 and 29.
(§4) Briefly, ASO #77 was administered by ICV injection to the FMCD and epilepsy animal models were generated with the pCIG-mTOR mutant-IRES-EGFP of Example 1. ASO #77 was evaluated for therapeutic potential for neuropsychiatric disorder accompanying the FMCD epilepsy animal models in the substantially same manner as in Example 6.

eIF4E [4] = test: Western blot of eIF4E knockdown by sheIF4E in cell lysates (Neuro2A); format: cell-based, mouse; conditions: vs shScramble
Protocol: The pSicoR vector digested with HpaI and XhoI restriction enzymes was ligated with the shScramble or the sheIF4E sequence in the presence of ligase to construct pSicoR-shScramble and pSicoR-sheIF4E vectors, respectively. Neuro2A cells were cultured and transfected with pSicoR to evaluate the translational downregulation of eIF4E in the same manner as in Example 1.2.
Construction of pCIG-MTOR mutant-IRES-GFP; mU6-shScramble or pCIG-MTOR mutant-IRES-GFP; mU6-sheIF4E vector and the inhibitory activity of sheIF4E against eIF4E were identified by western blot analysis using cell lysates.

[5] = test system: FMCD and epilepsy animal models (mTOR-p.C1483Y, mTOR-p.L2427P); test: 3-Chamber test (social interaction), FMCD epilepsy models; format: in vivo, mouse; conditions: mU6-sheIF4E models compared to mU6-shscramble models
Protocol: The 3-Chamber test measures social interaction and preference for social novelty. This apparatus consisted of three chambers with dimensions of 12×20×26 cm for the center chamber and dimensions of 14×20×26 cm for the opposite side chambers. Each of the opposite side chambers included a plastic cage (11 cm in diameter, 2.15 cm in height) for an object or stranger mouse in a corner. This experiment consisted of three sessions of habituation (10 min), exploring object/mouse (10 min), and exploring familiar/new mouse (10 min). In the second session, a WT stranger mouse was randomly placed in a plastic cage while the opposite plastic cage was empty. The mouse was allowed to freely explore the whole apparatus. The time spent in each chamber was measured and then used for the subsequent social interaction test. In the last session, a new WT stranger was placed in the empty plastic cage.
Experiments were performed on the FMCD and epilepsy animal models (mTOR-p.C1483Y, mTOR-p.L2427P) of Example 7-1 and the control normal animal models (mTOR-WT). […]
as §4

[6] = test system: FMCD and epilepsy animal models (mTOR-p.C1483Y, mTOR-p.L2427P); test: Marble burying test, FMCD epilepsy models; format: in vivo, mouse; conditions: mU6-sheIF4E models compared to mU6-shscramble models
Protocol: A mouse was placed in the cage.
as §2, §3, §4

[7] = test system: FMCD animal models (mTOR p.C1483Y, mTOR p.L2427P); test: Video seizure monitoring in FMCD animal models with sheIF4E-mediated eIF4E knockdown; format: in vivo, mouse
Protocol: In FMCD animal models, the onset of epilepsy starts at postnatal day 21 on average and has been completed within postnatal day 50. Video EGG monitoring was conducted from 3 weeks after birth. EGG signals were recorded for 12 hours per day three times in a week from postnatal day 21 to postnatal day 120. From the 12-hour video recordings, the number and length of seizures were measured.
From the 12-hours video recordings, the number and length of seizures were measured (FIG. 10).

[8] = test system: FMCD and epilepsy animal models (mTOR-p.C1483Y, mTOR-p.L2427P); test: Light & dark box test, FMCD epilepsy models; format: in vivo, mouse; conditions: mU6-sheIF4E models compared to mU6-shscramble models
Protocol: as §1, §2, §3, §4

[9] = test system: FMCD and epilepsy animal models (mTOR-p.C1483Y, mTOR-p.L2427P); test: Sucrose preference test, FMCD epilepsy models; format: in vivo, mouse; conditions: mU6-sheIF4E models compared to mU6-shscramble models
Protocol: Each of mice was habituated for 3-5 days in a cage with two selectable water bottles presented. Thereafter, the mice were each placed in the same cage as the habituation cage at the day of experiment. The mice were presented with two dual bottles, one containing tap water and the other containing 1% sucrose solution. Water and sucrose solution intake was measured after 24 hours and sucrose preference was calculated according to volume of sucrose intake/total volume of fluid intake×100%.
The same sheIF4E as that described in Example 2 was used. Week 2 after sheIF4E injection, the handling was performed in the animals. Week 3 after sheIF4E injection, the animals were subjected to the behavioral tests.
The epilepsy animal models were subjected to the substantially same behavioral abnormality assay as in Example 6.
as §4

[10] = test system: FMCD and epilepsy animal models (mTOR-p.C1483Y, mTOR-p.L2427P); test: Social avoidance test, FMCD epilepsy models; format: in vivo, mouse; conditions: mU6-sheIF4E models compared to mU6-shscramble models
Protocol: The arena was a black box (400×400 mm).
as §2, §3, §4

| Molecule | seizure onset (FMCD animal models; early treatment P14 to P56, intraperitoneal, 200 m/kg) | seizure frequency and duration (FMCD animal models; epilepsy animal models, FIGS. 14 and 15) | seizure frequency (FMCD animal models; late treatment P84 to P114, intraperitoneal, 200 m/kg) | eIF4E expression in sheIF4E-expressing neurons (immunostaining) (eIF4E [1]) | cortical dysplasia ([2]; brain tissue at postnatal day 7) | defective neuronal migration ([2]; mTOR mutant mice) | decreased synaptic spine density ([2]; postnatal day 21) | hypertrophic soma (neuronal cell size) ([2]; postnatal day 21) | expression of eIF4E sensitive genes ADK, IRSp53, and CREB1 (ADK, IRSp53, and CREB1) | time spent in center (index of anxiety) ([3]; mU6-sheIF4E models compared to mU6-shscramble models) | dyskinesia (behavior test) ([3]; mouse, in vivo) | knockdown of eIF4E by western blot (eIF4E [4]) | time spent in sniffing zone (social ability) [5] | number of buried marbles (repetitive behavior) [6] | frequency and time of seizure ([7]; FMCD animal models in which epilepsy was generated) | spontaneous seizures ([7]; FMCD epilepsy mice) | animals with seizure ([7]; mTOR p.L2427P mutation, video recordings until postnatal day 120) | time spent in center (residence time within the light box) [8] | % sucrose preference [9] | time spent to interact with the stranger mouse (social ability and depression) [10] |
| --- | --- | --- | --- | --- | --- | --- | --- | --- | --- | --- | --- | --- | --- | --- | --- | --- | --- | --- | --- | --- |
| CN(C)C(=N)N=C(N)N [metformin] | prevented seizure onset | reduction of seizure frequency and duration | suppressed seizure frequency |  |  |  |  |  |  |  |  |  |  |  |  |  |  |  |  |  |
| B1 |  |  |  | significantly reduced | remarkably reduced | significantly alleviated | rescued | rescued | significantly reduced | increased | no dyskinesia | efficient knockdown | increased | increased | remarkably decreased | almost completely rescued | five of 20 | increased | increased | increased |
